Results on ten variants are retold here after IntAct's records for PubMed 23460737.

B1: Protein THEMIS (Mus musculus), Q8BGW0 (parent)
chain: MALSLEEFVYSLDLRTLPRVLEIQSGIYFEGSVYEMFGNECCLSTGEVIKITGLKIKKMMAEICEGAIGGCESQKPFELPMNFPGLFKVMADKTPYLSIEEITRTVNIGPSRLGHPCFYHLKDIKLENLIIKQGEPIRFNSVEEINGETLVNCGVVRNHQSHSFTLPLSQEGEFYECEDEHIYTLKEIVEWKIPKNRTRTVKLTDFSNKWDSTNPFPEDFYGTLILKPVYEIQGVLKFQKDIVRILPSLDVEVKDITDSYDANWFLQLLSTDDLFEMTSKEFPVVAEVVEISQGNHLPQSILQREKTIVIHKKYQASRILASEIRSNFPKRHFLIPISYKGKFKRRPREFPTAYDLQIAKSRKETLHVVATKAFHTLHKELSPVSVGDQFLVHHSETTEVVFEGTRKVNVLTCEKVLNKTREDAQLPLYMEGGFVEVIHDKKQYQISELCTQFCWPFNVKVAVRDLSIKDDILAATPGLQLEEDITDSYLLISDFANPEECWEIPMSRLNMTVRLVNGSSLPADAGLLQVRSFVEEITEEQYYMMRRYESSLSHPPPRPPKHPSAEEMKLTLLSLAEERTINLPKSLKSHHVDRPKKLPSDESGQDSRAPVGFQNDVADVERQKSKHGPLQPQAPL
B2: Protein THEMIS (Homo sapiens), Q8N1K5-1 (parent)
chain: MALSLEEFVHSLDLRTLPRVLEIQAGIYLEGSIYEMFGNECCFSTGEVIKITGLKVKKIIAEICEQIEGCESLQPFELPMNFPGLFKIVADKTPYLTMEEITRTIHIGPSRLGHPCFYHQKDIKLENLIIKQGEQIMLNSVEEIDGEIMVSCAVARNHQTHSFNLPLSQEGEFYECEDERIYTLKEIVEWKIPKNRTRTVNLTDFSNKWDSTNPFPKDFYGTLILKPVYEIQGVMKFRKDIIRILPSLDVEVKDITDSYDANWFLQLLSTEDLFEMTSKEFPIVTEVIEAPEGNHLPQSILQPGKTIVIHKKYQASRILASEIRSNFPKRHFLIPTSYKGKFKRRPREFPTAYDLEIAKSEKEPLHVVATKAFHSPHDKLSSVSVGDQFLVHQSETTEVLCEGIKKVVNVLACEKILKKSYEAALLPLYMEGGFVEVIHDKKQYPISELCKQFRLPFNVKVSVRDLSIEEDVLAATPGLQLEEDITDSYLLISDFANPTECWEIPVGRLNMTVQLVSNFSRDAEPFLVRTLVEEITEEQYYMMRRYESSASHPPPRPPKHPSVEETKLTLLTLAEERTVDLPKSPKRHHVDITKKLHPNQAGLDSKVLIGSQNDLVDEEKERSNRGATAIAETFKNEKHQK
B3: Protein THEMIS (Homo sapiens), Q8N1K5-1 (parent)
chain: B2 chain
partner: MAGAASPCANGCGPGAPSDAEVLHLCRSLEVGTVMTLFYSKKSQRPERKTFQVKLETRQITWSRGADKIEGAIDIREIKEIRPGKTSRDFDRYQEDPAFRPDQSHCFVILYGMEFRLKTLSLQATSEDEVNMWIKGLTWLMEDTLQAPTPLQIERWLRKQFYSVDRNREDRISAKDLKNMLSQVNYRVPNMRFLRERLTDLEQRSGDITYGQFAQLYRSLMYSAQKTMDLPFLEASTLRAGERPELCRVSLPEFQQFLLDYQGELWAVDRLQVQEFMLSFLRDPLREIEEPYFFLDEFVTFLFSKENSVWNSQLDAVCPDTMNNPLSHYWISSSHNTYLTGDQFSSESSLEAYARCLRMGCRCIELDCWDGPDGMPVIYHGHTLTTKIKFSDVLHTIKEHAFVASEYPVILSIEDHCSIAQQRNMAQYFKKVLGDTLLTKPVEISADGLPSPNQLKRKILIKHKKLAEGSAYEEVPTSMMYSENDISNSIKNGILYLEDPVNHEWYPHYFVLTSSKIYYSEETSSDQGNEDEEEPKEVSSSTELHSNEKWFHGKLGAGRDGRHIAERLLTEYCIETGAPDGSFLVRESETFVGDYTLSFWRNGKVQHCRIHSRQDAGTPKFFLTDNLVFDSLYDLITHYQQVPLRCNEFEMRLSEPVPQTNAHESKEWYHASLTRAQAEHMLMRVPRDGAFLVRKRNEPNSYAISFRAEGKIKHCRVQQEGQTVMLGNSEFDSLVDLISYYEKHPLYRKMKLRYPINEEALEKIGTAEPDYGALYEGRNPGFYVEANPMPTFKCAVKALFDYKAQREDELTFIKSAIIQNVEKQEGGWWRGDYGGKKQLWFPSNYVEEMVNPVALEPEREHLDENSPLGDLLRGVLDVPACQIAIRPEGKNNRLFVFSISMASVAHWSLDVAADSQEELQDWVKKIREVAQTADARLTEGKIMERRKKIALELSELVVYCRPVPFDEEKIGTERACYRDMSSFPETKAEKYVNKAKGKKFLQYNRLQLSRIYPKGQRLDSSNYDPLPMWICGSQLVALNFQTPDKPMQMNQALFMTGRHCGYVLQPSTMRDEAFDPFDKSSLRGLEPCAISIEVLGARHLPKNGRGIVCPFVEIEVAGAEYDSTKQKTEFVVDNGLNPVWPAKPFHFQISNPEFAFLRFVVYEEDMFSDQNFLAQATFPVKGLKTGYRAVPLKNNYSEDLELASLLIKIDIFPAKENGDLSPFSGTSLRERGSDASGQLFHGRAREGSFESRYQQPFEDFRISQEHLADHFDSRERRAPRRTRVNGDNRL

The variants in one test derive from B1. The conditions noted are these: with grb2_human GRB2, P62993.
grb2_human GRB2, P62993, sequence (P62993 whole entry, looked up): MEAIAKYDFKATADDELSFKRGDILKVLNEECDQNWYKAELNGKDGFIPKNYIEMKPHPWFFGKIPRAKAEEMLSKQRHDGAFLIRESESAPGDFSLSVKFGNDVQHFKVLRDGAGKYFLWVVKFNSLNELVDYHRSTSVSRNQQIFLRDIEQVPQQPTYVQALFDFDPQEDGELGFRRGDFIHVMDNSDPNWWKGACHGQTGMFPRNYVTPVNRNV
As for P557A;P560A, the “effect of a mutation on the interaction” value is given as “disrupting interaction strength”.

The variants in a further test derive from B2. The conditions noted are these: with grb2_human GRB2, P62993.
P557A: the “effect of a mutation on the interaction” value was “disrupting interaction strength”.

Turning to P554A, the “effect of a mutation on the interaction” value is recorded as “disrupting interaction strength”.

Take K559A: the “effect of a mutation on the interaction” value is recorded as “disrupting interaction strength”.

In the case of R556A, the “effect of a mutation on the interaction” value is given as “disrupting interaction strength”.

Variants of B2 are the subject of a further test. The note with it: with grb2_human GRB2, P62993. This is another data set of the same source.
For the variant P555A;P558A, the “effect of a mutation on the interaction” value is recorded as “disrupting interaction strength”.

In the next test the parent is B2. The note with it: with grb2_human GRB2, P62993. The source holds these as a separate data set.
For P555A;P558A, the “effect of a mutation on the interaction” value was “disrupting interaction strength”.

On to P582A;P585A, for which the “effect of a mutation on the interaction” value is on record as “with no effect”.

The variants in the next test derive from B2. The conditions noted are these: with grb2_human GRB2, P62993. This is another data set of the same source.
Consider Y540F;Y541F, for which the “effect of a mutation on the interaction” value is listed as “disrupting interaction strength”.

A further test covers variants of B2. The note with it: with grb2_human GRB2, P62993. The source holds these as a separate data set.
Turning to Y540F;Y541F, the “effect of a mutation on the interaction” value is “with no effect”.

Consider Y540A;Y541A, for which the “effect of a mutation on the interaction” value is “with no effect”.

In another test the parent is B3. The conditions noted are these: with plcg1_human PLCG1, P19174.
In the case of P555A;P558A, the “effect of a mutation on the interaction” value is reported as “decreasing interaction strength”.
